Like-named read-outs stand apart in the source and are kept apart here. A value given as a limit tells only on which side of the number the result lay.

The target of data set [1] is T1, MbcS (methylbutyryl-CoA synthetase; SAUSA300_2542) (Staphylococcus aureus, UniProt A0A0H2XHR6).
T1 sequence (A0A0H2XHR6 1-532): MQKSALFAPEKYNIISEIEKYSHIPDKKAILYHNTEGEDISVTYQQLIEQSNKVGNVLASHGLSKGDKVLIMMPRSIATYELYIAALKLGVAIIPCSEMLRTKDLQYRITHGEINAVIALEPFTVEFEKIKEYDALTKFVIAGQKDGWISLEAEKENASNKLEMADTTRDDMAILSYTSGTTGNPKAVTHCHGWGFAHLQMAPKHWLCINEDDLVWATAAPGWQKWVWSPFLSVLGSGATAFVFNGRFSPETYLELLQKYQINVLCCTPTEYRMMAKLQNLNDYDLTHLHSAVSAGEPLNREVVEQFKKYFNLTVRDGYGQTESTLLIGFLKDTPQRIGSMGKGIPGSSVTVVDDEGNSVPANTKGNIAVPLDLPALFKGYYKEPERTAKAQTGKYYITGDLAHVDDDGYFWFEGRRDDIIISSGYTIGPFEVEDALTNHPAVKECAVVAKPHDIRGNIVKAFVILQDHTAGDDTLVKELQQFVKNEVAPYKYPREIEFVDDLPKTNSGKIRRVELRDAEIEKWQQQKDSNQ
The data set can be described thus: LC-MS/MS of acyl-CoA product, Michaelis-Menten fit. The settings on record: 2.5 mM ATP, 2.5 mM Mg2+, 200 μM CoA, Tris pH 7.5, 37 °C.

Substrate in data set [2]: Nc1ncnc2c1ncn2[C@@H]1O[C@H](COP(=O)(O)OP(=O)(O)OP(=O)(O)O)[C@@H](O)[C@H]1O
The data set can be described thus: purified protein. To be noted: 2.5 mM Mg2+, 200 μM CoA, 50 μM aC5, Tris pH 7.5, 37 °C.

Substrate in data set [3]: CCCC(=O)O
The data set can be described thus: purified protein. To be noted: 2.5 mM ATP, 2.5 mM Mg2+, 200 μM CoA, Tris pH 7.5, 37 °C.

Substrate in data set [4]: CC(C)(COP(=O)(O)OP(=O)(O)OC[C@H]1O[C@@H](n2cnc3c(N)ncnc32)[C@H](O)[C@@H]1OP(=O)(O)O)[C@@H](O)C(=O)NCCC(=O)NCCS
The data set can be described thus: purified protein. The settings on record: 2.5 mM ATP, 2.5 mM Mg2+, 50 μM aC5, Tris pH 7.5, 37 °C.

The Km is the substrate concentration at which the rate is half of its maximum. In the case of `CC(C)CC(=O)O` [iC5, isovalerate], in data set [1], the Michaelis-Menten constant (Km) is above 500 µM.

On to `CC(C)C(=O)O` [iC4, isobutyrate], for which the Km in data set [1] (read-out: apparent KM) was below 10 µM.

B1: MbcS (methylbutyryl-CoA synthetase; SAUSA300_2542) (Staphylococcus aureus subsp. aureus USA300) (protein)
chain: MQKSALFAPEKYNIISEIEKYSHIPDKKAILYHNTEGEDISVTYQQLIEQSNKVGNVLASHGLSKGDKVLIMMPRSIATYELYIAALKLGVAIIPCSEMLRTKDLQYRITHGEINAVIALEPFTVEFEKIKEYDALTKFVIAGQKDGWISLEAEKENASNKLEMADTTRDDMAILSYTSGTTGNPKAVTHCHGWGFAHLQMAPKHWLCINEDDLVWATAAPGWQKWVWSPFLSVLGSGATAFVFNGRFSPETYLELLQKYQINVLCCTPTEYRMMAKLQNLNDYDLTHLHSAVSAGEPLNREVVEQFKKYFNLTVRDGYGQTESTLLIGFLKDTPQRIGSMGKGIPGSSVTVVDDEGNSVPANTKGNIAVPLDLPALFKGYYKEPERTAKAQTGKYYITGDLAHVDDDGYFWFEGRRDDIIISSGYTIGPFEVEDALTNHPAVKECAVVAKPHDIRGNIVKAFVILQDHTAGDDTLVKELQQFVKNEVAPYKYPREIEFVDDLPKTNSGKIRRVELRDAEIEKWQQQKDSNQ
B1: the Km in “purified protein [2]” is 3.2 ± 0.2 µM; in the data set “purified protein [3]”, 144 µM; in “purified protein [4]”, 49.3 ± 6.9 µM.
